In patent publication US10358638B2, “Method of producing 1,5-pentadiamine using lysine decarboxylase mutant having improved thermal stability” (AJINOMOTO CO., INC., priority 2014, dated 2019):

Experiments:
Assay type in all cases: biochemical, Escherichia coli
[1] = Screening of lysates for retained lysine decarboxylase activity after heat treatment at 65° C.; details: lysate incubated at 65° C. for 2 hours, then reacted at 37° C. for 40 minutes
Method: A colony of each transformant in which the mutated lysine decarboxylase had been introduced was picked up, inoculated to 1 mL of the LB medium containing 100 μg/mL of ampicillin, and cultured at 30° C. for 24 hours. 18 μL of 100 mM 2-(N-morpholino) ethanesulfonic acid (MES)-NaOH buffer (pH6.0) and 2.7 μL of FastBreak cell lysis reagent (Promega) were added to 10 μL of this cultured medium, which was then incubated at 37° C. for 30 minutes to lyse the microbial cells. Then, this lysate solution was heated up to 65° C. and incubated for 2 hours. After this heat treatment, 190 μL of a reaction solution (pH 5.5) containing 10 g/L of lysine hydrochloride, 21.3 g/L (100 mM) of MES, 26.5 mg/L of Pyridoxal-5′-phosphate (PLP) and 20 mg/L of Bromocresol purple was added and reacted at 37° C. for 40 minutes. […] More abundant formation of 1,5-PD and retention of activity as compared to bacteria expressing the wild-type enzyme after treating with heat under the above conditions were used as an indicator. Three candidate strains expressing CadA having improved thermal stability were obtained using this indicator. These transformants of E. coli JM109 strain were designated as CadA231, CadA232 and CadA233, respectively.

[2] = Remaining lysine decarboxylase activity of cell free extract after incubation at 68° C.; details: 68° C., 1 hour, FIG. 1
Method: (§1) The activity of the lysine decarboxylase was measured according to the method described in JP patent application laid-open Publication No. 2008-193899. 0.1 mL of a microbial cell suspension or a treated product thereof was added to 1 mL of a reaction solution containing 100 mM MES-NaOH buffer (pH 6.0), 10 g/L (55 mM) of L-lysine hydrochloride and 26.5 mg/L (0.1 mM) of PLP, and then the reaction mixture was incubated at 37° C. for 5 minutes. 0.1 mL of the reaction solution was collected and added to 1 mL of 1% (v/v) phosphoric acid to stop the reaction. Lysine and 1,5-PD were quantified with HPLC by a post column OPA method (S. R. Vale and M. B. Gloria, Journal Of AOAC International (1997) vol. 80, p. 1006-1012) or a method of quantifying remaining L-lysine using a biosensor BF-5 (Oji Scientific Instruments Co., Ltd.). One unit was defined as an activity that formed 1 μmol of 1,5-PD in one minute under this condition.
A combination mutant for increasing the amount of expressed CadA was constructed using QuikChange™ Site-Directed Mutagenesis Kit (Stratagene). A mutation to alter from Val (GTT) to Ile ([…]) at position 3 was introduced using the plasmid pCadA233 as the template and using oligonucleotides v3i_r (5′-cat gtg att caa tat tgc aat aat gtt cat cta cat tcc tcc tta cg-3′(SEQ ID NO:11)) and v3i_f (5′-cgt aag gag gaa tgt aga tga aca tta ttg caa tat tga atc aca tg-3′ (SEQ ID NO:12)) as primers according to a protocol. The nucleotide sequence of the constructed plasmid was determined by the method described in Example 2 to confirm that the objective mutation had been introduced, and this plasmid was designated as pCadA234. Microbial cells of E. coli JM109/pCadA234 expressing this double mutant CadA234 at high level were cultured to prepare a cell free extract in the same manner as in Example 2. The activity in this cell free extract was 663 U/mL, which was almost the same as that from the strain expressing the wild-type enzyme.
The resulting cell free extract was diluted to 20 fold with 0.1 M MES-NaOH buffer (pH 6.0). Each crude enzyme solution was incubated at 68° C., which is a higher temperature than in Example 2, and the remaining activity was measured over time. After incubation at 68° C. for one hour, the wild-type enzyme was inactivated to 27% while the single mutant enzymes V3I and A590T were inactivated to 47% and 27%, respectively. On the contrary, the double mutant enzyme retained 70% of its activity, and even after 3 hours, still retained about 60% of its activity (FIG. 1). Therefore, it was shown that the double mutation has a synergistic effect and further improved the thermal stability.

[3] = Remaining lysine decarboxylase activity of cell free extract after incubation at 65° C.
Method: as §1
Each transformant was inoculated to 50 mL of L medium in a 500 mL Sakaguchi flask containing 100 μg/mL of ampicillin and cultured with shaking at 30° C. for 16 hours. Microbial cells were collected from the cultured medium by centrifugation, washed once with saline, subsequently suspended in 5 mL of 100 mM potassium phosphate buffer (pH 7.0), and disrupted by sonication at 4° C. for 20 minutes. An insoluble fraction was removed by centrifuging the lysate solution at 8,000 rpm for 10 minutes to prepare a cell free extract.
The resulting cell free extract was diluted 20 fold with 100 mM MES-NaOH buffer (pH 6.0). This crude enzyme solution was incubated at 65° C., and its remaining activity after 3 and 5 hours was measured by the method described in Example 1. As a result, the activity in the crude enzyme solution from the strain expressing the mutated enzyme before incubation was almost the same as that from the strain expressing the wild-type enzyme (Table 3).

[4] = cell free extract diluted 20 fold, before heating

B1: pCadA220: wild-type lysine decarboxylase (CadA) derived from Escherichia coli W3110, expressed from plasmid pCadA220 (protein, UniProt P0A9H3 1-715, looked up)
Inducible lysine decarboxylase: MNVIAILNHMGVYFKEEPIRELHRALERLNFQIVYPNDRDDLLKLIENNARLCGVIFDWDKYNLELCEEISKMNENLPLYAFANTYSTLDVSLNDLRLQISFFEYALGAAEDIANKIKQTTDEYINTILPPLTKALFKYVREGKYTFCTPGHMGGTAFQKSPVGSLFYDFFGPNTMKSDISISVSELGSLLDHSGPHKEAEQYIARVFNADRSYMVTNGTSTANKIVGMYSAPAGSTILIDRNCHKSLTHLMMMSDVTPIYFRPTRNAYGILGGIPQSEFQHATIAKRVKETPNATWPVHAVITNSTYDGLLYNTDFIKKTLDVKSIHFDSAWVPYTNFSPIYEGKCGMSGGRVEGKVIYETQSTHKLLAAFSQASMIHVKGDVNEETFNEAYMMHTTTSPHYGIVASTETAAAMMKGNAGKRLINGSIERAIKFRKEIKRLRTESDGWFFDVWQPDHIDTTECWPLRSDSTWHGFKNIDNEHMYLDPIKVTLLTPGMEKDGTMSDFGIPASIVAKYLDEHGIVVEKTGPYNLLFLFSIGIDKTKALSLLRALTDFKRAFDLNLRVKNMLPSLYREDPEFYENMRIQELAQNIHKLIVHHNLPDLMYRAFEVLPTMVMTPYAAFQKELHGMTEEVYLDEMVGRINANMILPYPPGVPLVMPGEMITEESRPVLEFLQMLCEIGAHYPGFETDIHGAYRQADGRYTVKVLKEESKK
activity after heat treatment of lysate [1]: inactivated
remaining activity after incubation at 68° C. for one hour [2]: 27%
Activity after incubation at 65° C. for 3 h ([3]; 65° C., 3 h): 413 Units/mL
Remaining activity after incubation at 65° C. for 3 h ([3]; 65° C., 3 h, relative to before heating): 59.2%
Activity after incubation at 65° C. for 5 h ([3]; 65° C., 5 h): 360 Units/mL
Remaining activity after incubation at 65° C. for 5 h ([3]; 65° C., 5 h, relative to before heating): 51.6%
Remaining activity after incubation at 65° C. for 5 h ([3]; 65° C., 5 h, relative to before heating, listed as wild-type enzyme): reduced by half
Activity before heating [3, 4]: 697 Units/mL
Activity before heating, remaining activity [3, 4]: 100%
